In this experiment the target is human complement C1 esterase inhibitor (human) (UniProt P05155).
UniProt P05155, sequence (P05155 23-500): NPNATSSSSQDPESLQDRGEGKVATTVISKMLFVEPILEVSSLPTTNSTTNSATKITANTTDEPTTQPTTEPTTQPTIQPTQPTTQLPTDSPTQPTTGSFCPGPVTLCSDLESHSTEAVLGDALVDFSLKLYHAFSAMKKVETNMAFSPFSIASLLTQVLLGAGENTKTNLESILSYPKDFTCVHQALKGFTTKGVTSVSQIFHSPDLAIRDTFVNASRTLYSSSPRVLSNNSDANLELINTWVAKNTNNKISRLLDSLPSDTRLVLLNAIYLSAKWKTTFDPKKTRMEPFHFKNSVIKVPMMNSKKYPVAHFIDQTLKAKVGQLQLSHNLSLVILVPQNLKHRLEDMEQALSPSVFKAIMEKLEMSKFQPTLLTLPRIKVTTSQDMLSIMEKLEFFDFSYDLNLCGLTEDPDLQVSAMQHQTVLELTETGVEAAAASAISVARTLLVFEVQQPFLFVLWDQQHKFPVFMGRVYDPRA

Consider Activated C1s (enzyme), for which the percentage of dead E. coli BL21 (Live/Dead staining) after antibody 2E4 and human complement plasma treated with OSCS (25.5% without GAG, 26.5% with CSA) turned out to be 8%.

(Values after publication PMC3471833.)
